Reference: patent US20190321483A1 (Novartis, published 2019)

T1: Cynomolgus monkey cKIT D1-5 (cynomolgus monkey, UniProt P10721 26-524 (human entry))
T1 construct: also called cyno cKIT ECD
T1 chain: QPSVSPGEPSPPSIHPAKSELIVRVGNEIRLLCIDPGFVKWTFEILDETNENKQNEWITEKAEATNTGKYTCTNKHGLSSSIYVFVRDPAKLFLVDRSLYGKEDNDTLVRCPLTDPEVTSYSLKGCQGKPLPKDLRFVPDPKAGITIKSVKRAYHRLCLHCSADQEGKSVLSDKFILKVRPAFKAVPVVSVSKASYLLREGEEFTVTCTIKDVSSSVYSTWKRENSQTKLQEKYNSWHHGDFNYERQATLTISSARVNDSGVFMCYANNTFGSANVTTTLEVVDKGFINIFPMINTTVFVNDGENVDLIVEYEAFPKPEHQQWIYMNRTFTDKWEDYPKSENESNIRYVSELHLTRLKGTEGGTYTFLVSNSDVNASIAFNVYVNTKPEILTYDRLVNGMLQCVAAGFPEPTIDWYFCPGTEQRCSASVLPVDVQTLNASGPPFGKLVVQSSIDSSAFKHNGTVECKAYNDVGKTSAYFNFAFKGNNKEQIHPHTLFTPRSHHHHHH

T2: Rat cKIT D1-5, C-terminal mFc (rat)
T2 construct: also called rat cKIT-mFc
T2 chain: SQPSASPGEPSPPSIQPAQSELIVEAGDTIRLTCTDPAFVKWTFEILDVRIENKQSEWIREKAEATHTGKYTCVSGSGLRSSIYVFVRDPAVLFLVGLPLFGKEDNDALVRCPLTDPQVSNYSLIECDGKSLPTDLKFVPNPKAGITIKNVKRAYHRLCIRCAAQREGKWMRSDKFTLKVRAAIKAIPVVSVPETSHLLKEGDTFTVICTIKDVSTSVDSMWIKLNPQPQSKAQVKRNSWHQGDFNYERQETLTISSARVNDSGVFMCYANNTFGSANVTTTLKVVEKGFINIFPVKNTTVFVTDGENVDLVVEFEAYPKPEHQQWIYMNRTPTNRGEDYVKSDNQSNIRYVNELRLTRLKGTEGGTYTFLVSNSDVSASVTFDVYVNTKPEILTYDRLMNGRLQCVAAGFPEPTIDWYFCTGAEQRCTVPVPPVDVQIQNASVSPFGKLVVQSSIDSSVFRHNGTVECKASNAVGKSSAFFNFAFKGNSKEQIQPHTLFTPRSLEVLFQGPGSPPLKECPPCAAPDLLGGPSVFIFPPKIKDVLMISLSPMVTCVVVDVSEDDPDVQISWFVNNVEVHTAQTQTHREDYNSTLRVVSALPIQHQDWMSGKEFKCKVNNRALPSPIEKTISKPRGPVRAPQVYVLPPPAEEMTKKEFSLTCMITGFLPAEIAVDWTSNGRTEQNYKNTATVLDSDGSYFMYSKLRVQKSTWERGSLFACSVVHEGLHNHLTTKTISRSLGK

T3: Mouse cKIT ECD, C-terminal 6x His (Sino Biological Inc, Catalog number 50530-M08H) (mouse, UniProt P05532 25-527)
T3 construct: extracellular domain
T3 sequence: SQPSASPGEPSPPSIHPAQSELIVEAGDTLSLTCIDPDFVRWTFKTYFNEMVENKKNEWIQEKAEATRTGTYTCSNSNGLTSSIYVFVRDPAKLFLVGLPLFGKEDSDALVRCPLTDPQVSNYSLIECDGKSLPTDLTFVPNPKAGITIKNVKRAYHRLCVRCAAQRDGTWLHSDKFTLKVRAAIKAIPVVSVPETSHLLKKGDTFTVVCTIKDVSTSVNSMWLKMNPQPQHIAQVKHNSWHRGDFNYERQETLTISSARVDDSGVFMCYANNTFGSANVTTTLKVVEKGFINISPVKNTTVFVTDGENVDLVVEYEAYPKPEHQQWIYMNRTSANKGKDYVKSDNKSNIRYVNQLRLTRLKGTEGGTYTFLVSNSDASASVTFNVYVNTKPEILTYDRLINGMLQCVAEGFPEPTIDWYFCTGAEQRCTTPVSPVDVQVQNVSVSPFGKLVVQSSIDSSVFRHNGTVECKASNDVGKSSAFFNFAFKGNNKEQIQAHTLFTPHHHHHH


Key:
[1] = molecular target: T1, Cynomolgus monkey cKIT D1-5; experiment: 'in SET' by the column head; Example 4 describes Biacore SPR (antibody captured by anti-human Fc, cKIT ECD in solution)
[2] = molecular target: T4, Human cKIT D1-5 (extracellular domain) (human, UniProt P10721 26-524); experiment: as above
T4 construct: also called human cKIT ECD; full-length cKIT ECD
T4 sequence (P10721 other isoform, or with tags, fused parts or gaps): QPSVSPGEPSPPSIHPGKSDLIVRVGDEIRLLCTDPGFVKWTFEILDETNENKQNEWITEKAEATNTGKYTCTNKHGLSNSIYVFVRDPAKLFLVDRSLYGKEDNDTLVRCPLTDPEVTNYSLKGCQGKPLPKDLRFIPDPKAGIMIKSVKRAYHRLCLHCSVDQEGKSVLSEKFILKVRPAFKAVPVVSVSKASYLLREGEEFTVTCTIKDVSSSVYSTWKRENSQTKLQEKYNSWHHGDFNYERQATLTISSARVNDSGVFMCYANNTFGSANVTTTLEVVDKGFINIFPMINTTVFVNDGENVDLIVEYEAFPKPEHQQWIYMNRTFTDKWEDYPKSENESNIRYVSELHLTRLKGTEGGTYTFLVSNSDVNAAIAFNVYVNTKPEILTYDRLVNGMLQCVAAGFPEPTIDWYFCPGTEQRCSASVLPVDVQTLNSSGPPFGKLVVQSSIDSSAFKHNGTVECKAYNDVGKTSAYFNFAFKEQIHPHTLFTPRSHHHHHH

[3] = molecular target: T2, Rat cKIT D1-5, C-terminal mFc; experiment: cross reactivity, Table 6 (Example 4: Biacore SPR, antibody captured by anti-human Fc, cKIT ECD in solution)
[4] = molecular target: T3, Mouse cKIT ECD, C-terminal 6x His (Sino …); experiment: as above
[5] = molecular target: T2, Rat cKIT D1-5, C-terminal mFc; experiment: cross reactivity, Table 6 (Example 4: Biacore SPR, antibody captured, cKIT ECD in solution)

Binder | Kd [1] [nM] | Kd [2] [nM] | binding result [3] | binding result [4] | binding result [5]
Anti-cKIT Ab1 (antibody, human IgG1, kappa, V domains shown, Full-length human IgG1, kappa light chain; also called IgG control for J1) VH: QVQLVQSGAEVKKPGSSVKVSCKASGGTFSSYAISWVRQAPGQGLEWMGVIFPAEGAPGYAQKFQGRVTITADESTSTAYMELSSLRSEDTAVYYCARGGYISDFDVWGQGTLVTVSS VL: DIQMTQSPSSLSASVGDRVTITCRASQSISNYLAWYQQKPGKAPKLLIYDASSLQSGVPSRFSGSGSGTDFTLTISSLQPEDFATYYCQQYYYESITFGQGTKVEIKR | 0.17 | 0.094 | no binding | no binding | –
Anti-cKIT Ab2 (antibody, human IgG1, kappa, V domains shown, Full-length human IgG1, kappa light chain; also called IgG control for J2) VH: QVQLVQSGAEVKKPGSSVKVSCKASGGTFSSHALSWVRQAPGQGLEWMGGIIPSFGTADYAQKFQGRVTITADESTSTAYMELSSLRSEDTAVYYCARGLYDFDYWGQGTLVTVSS VL: DIQMTQSPSSLSASVGDRVTITCRASQDISQDLAWYQQKPGKAPKLLIYDASSLQSGVPSRFSGSGSGTDFTLTISSLQPEDFAVYYCQQYYYLPSTFGQGTKVEIKR | 0.01 | 0.007 | no binding | no binding | –

Next, values leading:

Kd [1] [nM] | Kd [2] [nM] | binding result [3] | binding result [4] | binding result [5] | Binder
0.18 | 0.11 | – | – | binds | Anti-cKIT Ab5 (antibody, human IgG1, lambda, V domains shown, Full-length human IgG1, lambda light chain) VH: QVQLVQSGAEVKKPGESLKISCKGSGYSFTNYWIAWVRQMPGKGLEWMGIIYPSNSYTLYSPSFQGQVTISADKSISTAYLQWSSLKASDTAMYYCARVPPGGSISYPAFDHWGQGTLVTVSS VL: DIELTQPPSVSVSPGQTASITCSGDNIGSIYASWYQQKPGQAPVLVIYRDNKRPSGIPERFSGSNSGNTATLTISGTQAEDEADYYCSVTDMEQHSVFGGGTKLTVLG
0.14 | 2.4 | – | – | binds | Anti-cKIT Ab4 (antibody, human IgG1, lambda, V domains shown, Full-length human IgG1, lambda light chain; also called IgG control for J4) VH: QVQLQQSGPGLVKPSQTLSLTCAISGDSVSTNSAAWNWIRQSPSRGLEWLGRIYYRSQWLNDYAVSVKSRITINPDTSKNQFSLQLNSVTPEDTAVYYCARQLTYPYTVYHKALDVWGQGTLVTVSS VL: DIELTQPPSVSVSPGQTASITCSGDNLGDQYVSWYQQKPGQAPVLVIYDDTDRPSGIPERFSGSNSGNTATLTISGTQAEDEADYYCQSTDSKSVVFGGGTKLTVLG
